Assay results published in US20200255494A1.

Target: anti-HA1H TCR expressed on SupT1 cells
Assay: cell-based or functional assay

**Q.** For “MHC I CAR with β2m-41BBz: HLA-A02 / β2m-41BBz chimeric construct loaded with recombinant HA1H peptide, on transduced PBMC CAR-T cells (from UniProt P61769 21-119; P20963 31-51; Q07011 214-255; P20963 52-163) (peptide-MHC)”, which EC50 for HA1H peptide (pulsing concentration) in killing of SupT1 anti-HA1H TCR target cells, 48 h co-culture, 2:1 effector to target, flow cytometry is on record?
**A.** 0.1 µM

**Q.** With “MHC I CAR with β2m-CD3z: HLA-A02 / β2m-CD3z chimeric construct loaded with recombinant HA1H peptide, on transduced PBMC CAR-T cells (from UniProt P61769 21-119; P20963 31-51; P20963 52-163) (peptide-MHC)” as the substance, how does the EC50 for HA1H peptide (pulsing concentration) in killing of SupT1 anti-HA1H TCR target cells, 48 h co-culture, 2:1 effector to target, flow cytometry read?
**A.** 0.5 µM
